Experiments:
Conditions in all cases: Hepacivirus hominis
[1] = substrate: CCCN(NC(=O)[C@H]1CCCN1C(=O)[C@@H](NC(=O)[C@@H](NC(=O)[C@H](CC(=O)O)NC(=O)[C@H](CCC(=O)O)NC(=O)[C@@H](NC(C)=O)[C@@H](C)O)C(C)C)C(C)C)C(=O)Oc1ccc([N+](=O)[O-])cc1; assay: Binding affinity against Hepatitis C virus NS3 protease
[2] = substrate: CCCN(NC(=O)[C@H]1CCCN1C(=O)[C@@H](NC(=O)[C@@H](NC(C)=O)C(C)C)C(C)C)C(=O)Oc1ccc([N+](=O)[O-])cc1; assay: (§1) Michaelis-Menten constant was determined against Hepatitis C virus NS3 protease and represented as Km
[3] = substrate: CCCN(NC(=O)[C@H]1CCCN1C(=O)[C@@H](NC(=O)[C@@H](NC(=O)[C@H](CC(=O)O)NC(C)=O)C(C)C)C(C)C)C(=O)Oc1ccc([N+](=O)[O-])cc1; assay: as §1
[4] = substrate: CCCN(NC(=O)[C@H]1CCCN1C(=O)[C@@H](NC(=O)[C@@H](NC(=O)[C@H](CC(=O)O)NC(=O)[C@H](CCC(=O)O)NC(C)=O)C(C)C)C(C)C)C(=O)Oc1ccc([N+](=O)[O-])cc1; assay: as §1
[5] = substrate: CCCC(NC(=O)[C@H]1CCCN1C(=O)[C@@H](NC(=O)[C@@H](NC(=O)[C@H](CC(=O)O)NC(=O)[C@H](CCC(=O)O)NC(=O)[C@@H](NC(=O)[C@H](CC(=O)O)NC(C)=O)[C@@H](C)O)C(C)C)C(C)C)C(=O)Oc1ccc([N+](=O)[O-])cc1; assay: as §1
[6] = substrate: CCCN(NC(=O)[C@H]1CCCN1C(=O)[C@@H](NC(=O)[C@@H](NC(=O)[C@H](CC(=O)O)NC(=O)[C@H](CCC(=O)O)NC(=O)[C@@H](NC(=O)[C@H](CC(=O)O)NC(C)=O)[C@@H](C)O)C(C)C)C(C)C)C(=O)Oc1ccc([N+](=O)[O-])cc1; assay: Michaelis-Menten constant against Hepatitis C virus NS3 protease and represented as Km

B1: NS3 (Hepatitis C virus), A3EZJ3 (protein)
chain: APITAYAQQTRGLLGCIITGLTGRDKNQVEGEVQIVSTAAQTFLATCINGVCWTVYHGAGTRTIASSKGPVIQMYTNVDQDLVGWPAPQGARSLTPCTCGSSDLYLVTRHADVIPVRRRGDGRGSLLSPRPISYLKGSSGGPLLCPAGHAVGIFRAAVCTRGVAKAVDFIPVEGLETTMRSPVFSDNSSPPAVPQSYQVAHLHAPTGSGKSTKVPAAYAAQGYKVLVLNPSVAATLGFGAYMSKAHGIDPNIRTGVRTITTGSPITYSTYGKFLADGGCSGSAYDIIICDECHSTDATSILGIGTVLDQAETAGARLTVLATATPPGSVTVPHPNIEEVALSTTGEIPFYGKAIPLEAIKGGRHLIFCHSKKKCDELAAKLVALGVNAVAYYRGLDVSVIPASGDVVVVATDALMTGFTGDFDSVIDCNTCVTQTVDFSLDPTFTIETTTLPQDAVSRTQRRGRTGRGKPGIYRFVTPGERPSGMFDSSVLCECYDAGCAWYELTPAETTVRLRAYMNTPGLPVCQDHLEFWEGVFTGLTHIDAHFLSQTKQSGENLPYLVAYQATVCARAQAPPPSWDQMWKCLIRLKPTLHGPTPLLYRLGAVQNEITLTHPITKYIMTCMSADLEVVT
**Q.** B1 was tested. Which Km [1] did it give?
**A.** The Km was 5 µM.

**Q.** And the Km [2]?
**A.** Its Km is 100 µM.

**Q.** What about the Km [3] of the same protein?
**A.** The Km was 9 µM.

**Q.** And the Km [4]?
**A.** Its Km is 4 µM.

**Q.** What about the Km [5] of the same protein?
**A.** The Km was 4 µM.

**Q.** And the Km [6]?
**A.** The Km was 5 µM.
